Patent publication US20220323495A1 (NATIONAL RESEARCH COUNCIL OF CANADA, published 2022)

T1: EGFRvIII amino acid residues 15 to 37 with Tyr25 to Ala mutation, yeast-displayed (human, not fully specified)
T1 construct: The entry already carries the mutation
T1 peptide: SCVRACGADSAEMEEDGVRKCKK

T2: EGFRvIII amino acid residues 15 to 37 with Glu26 to Ala mutation, yeast-displayed (human, not fully specified)
T2 construct: The entry already carries the mutation
T2 peptide: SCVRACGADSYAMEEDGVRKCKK

T3: EGFRvIII amino acid residues 15 to 37 with Asp23 to Ala mutation, yeast-displayed (human, not fully specified)
T3 construct: The entry already carries the mutation
T3 peptide: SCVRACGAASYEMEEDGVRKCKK

T4: EGFRvIII amino acid residues 15 to 37 with Val17 to Ala mutation, yeast-displayed (human, not fully specified)
T4 construct: The entry already carries the mutation
T4 peptide: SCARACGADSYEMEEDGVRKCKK


Key:
[1] = target: T1, EGFRvIII amino acid residues 15 to 37 …; experiment: flow cytometry on yeast displaying the mutated 15-37 fragment
From the text: (§1) Assessment of the binding of anti-EGFRvIII monoclonal antibodies to the fusion proteins expressed on yeast cell surface was done by flow cytometry analysis. Yeast cells were labeled with both the anti-EGFRvIII monoclonal antibody and chicken anti-Myc antibody the latter being used to monitor the level of expression of the fusion protein. Following a wash step, binding of the primary antibodies is probed by a two-color indirect fluorescence labeling using a specific mouse and chicken secondary antibodies for each of the primary antibody respectively.
(§2) To further characterize mAb epitopes within the EGFRvIII 15-37 region, an alanine scan of this region was performed, and modified fragments were expressed at the surface of the yeast. […] The resulting DNAs were expressed at the surface of the yeast and each anti-EGFRvIII mAbs was tested on the corresponding yeast mutant strain by flow cytometry analysis. The original Ala19 and Ala22 were not mutated. Thus, this assay determined the contribution of each amino acid(s) in mAb binding in comparison to the original wild-type fragment (SEQ ID NO:5) which is attributed the value of 100%.

[2] = target: T2, EGFRvIII amino acid residues 15 to 37 …; experiment: as above
From the text: as §1, §2

[3] = target: T1, EGFRvIII amino acid residues 15 to 37 …; experiment: flow cytometry on yeast displaying the Ala-mutated 15-37 fragment; normalized to Myc-tag; wild-type fragment = 100%
From the text: as §1, §2

[4] = target: T3, EGFRvIII amino acid residues 15 to 37 …; experiment: flow cytometry on yeast displaying the mutated 15-37 fragment
From the text: as §1, §2

[5] = target: T4, EGFRvIII amino acid residues 15 to 37 …; experiment: as above
From the text: as §1, §2

Binder | binding result [1] | binding result [2] | % of binding compared to the wild-type sequence [3] [%] | binding result [4] | binding result [5]
F269-3D12 anti-EGFRvIII monoclonal antibody (antibody, V domains shown, Mouse hybridoma IgG, tested as supernatant or Protein G purified mAb; also called 3D12-2) VH: EVQLQQSGPELVKPGSSVRISCKASGYTFTDYNMDWVKQSHGKSLEWIGTINPNNGGTSYNQKFKGKATLTVDKSSSTAYMELRSLTSEDSAVYYCARVRQLGLWFAYWGQGTLVTVSA VL: EIVLTQSPALMAASPGEKVTITCSVSSSISSSNLHWYQQKSETSPKPWIYGTSNLASGVPVRFSGSGSGTSYSLTISSMEAEDAATYYCQQWSSYPLTFGSGTKLEIK | no binding | no binding |  |  | 
F265-5B7 anti-EGFRvIII monoclonal antibody (antibody, V domains shown, Mouse hybridoma IgG, tested as supernatant or Protein G purified mAb; also called 5B7-2) VH: QIQLVQSGPELKKPGETVMISCKASGYSFTNYGMNWVKQAPEKDLKWMGWINTYTGESRYVDEFKGRFAFSLETSVSIVYLKINNLKNEDMATYFCARGPNFDVWGTGTTVTVSS VL: not shown |  |  | 192 | no binding | no binding
